{"source": "paper PMC11326647", "about": "“In vitro reconstitution reveals membrane clustering and RNA recruitment by the enteroviral AAA+ ATPase 2C” (PLOS Pathogens, 2023)", "binders": {"B1": {"name": "dsRNA 20-mer (oligos 1+2) (dsRNA)", "RNA 1": "CCUCUAACCACAGUCUGAUC", "RNA 2": "GAUCAGACUGUGGUUAGAGG"}, "B2": {"name": "His6-MBP-tagged full-length poliovirus 2C (residues 1-329) (natural protein)", "chain": "GDSWLKKFTEACNAAKGLEWVSNKISKFIDWLKEKIIPQARDKLEFVTKLRQLEMLENQISTIHQSCPSQEHQEILFNNVRWLSIQSKRFAPLYAVEAKRIQKLEHTINNYIQFKSKHRIEPVCLLVHGSPGTGKSVATNLIARAIAERENTSTYSLPPDPSHFDGYKQQGVVIMDDLNQNPDGADMKLFCQMVSTVEFIPPMASLEEKGILFTSNYVLASTNSSRISPPTVAHSDALARRFAFDMDIQVMNEYSRDGKLNMAMATEMCKNCHQPANFKRCCPLVCGKAIQLMDKSSRVRYSIDQITTMIINERNRRSNIGNCMEALFQ", "notes": "also called MBP-2C; His6MBP-2C"}, "B3": {"name": "full-length poliovirus 2C, MBP tag cleaved off in the presence of liposomes (membrane-bound 2C) (natural protein)", "chain": "B2 chain", "notes": "also called full-length 2C"}}, "key": {"[1]": {"target": "2C (MBP removed by TEV in situ, bound to SUVs) (Poliovirus type 1 Mahoney, UniProt P03300 1128-1456)", "assay": "SUV co-flotation, TET fluorescence", "conditions": "protein: recombinant; tags: His6-MBP cleaved by TEV during assay; chain copies: 6; label: 5' TET on strand 1; blunt"}, "[2]": {"target": "the molecule itself", "assay": "mass photometry"}, "[3]": {"target": "the molecule itself", "assay": "cryo-electron tomography (mass from the volume of segmented densities)"}}}
{"binder": "B1", "values": [{"measurement": "binding result", "setting": "[1]", "value": "binds"}]}
{"binder": "B2", "values": [{"measurement": "stoichiometry N", "setting": "[2]", "value": "~6"}]}
{"binder": "B3", "values": [{"measurement": "stoichiometry N", "setting": "[3]", "value": "~6"}]}
